Data published in PMC7870846, “Incorporation of sensing modalities into de novo designed fluorescence-activating proteins” (Nature Communications, 2021).

Tests used:
[1] = Fluorescence intensity assays of mFAP variants; format: biochemical; settings: neutral pH, DFHBI
Description: To measure fluorescence intensities of the phenolate form of chromophores, fluorescence was measured on a Synergy Neo2 hybrid multi-mode reader (BioTek) in flat bottom, black polystyrene, non-binding surface 96-well microplates (Corning 3650). Fluorescence intensity was measured in triplicate by exciting at λex = 484 nm and measuring fluorescence emission at λem = 505 nm (or λem = 511 nm for clones harboring the W27 mutation) (Supplementary Fig. 1g, h). The W27 mutation redshifts the peak emission wavelength from λem = ~505 nm to λem = ~511 nm, presumably due to the W27 indole ring donating a hydrogen bond to the imidazolinone moiety of the deprotonated state of DFHBI, which stabilizes the chromophore conjugated π–electron system in the excited state causing the redshift in emission. Fifteen microliters of small-scale purified protein[49] was combined with 185 μL of Na2HPO4-citrate (pH 7.36) buffer supplemented with 150 mM NaCl and 108 nM DFHBI for a final concentration of 100 nM DFHBI. In measuring the excitation spectra from λem = 525 nm of each clone in triplicate (Supplementary Fig. 1i), 30.0 μL of large-scale purified protein[49] was combined with 170 μL of 25.0 mM Tris (pH 8.00) supplemented with 100 mM NaCl and 914 nM DFHBI for a final concentration of 7.77 μM protein and 777 nM DFHBI. In measuring the fluorescence intensity at λex = 484 nm and λem = 509 nm of each clone in triplicate (Supplementary Fig. 1j), 30.0 μL of large-scale purified protein[49] was combined with 170 μL of 25.0 mM Tris (pH 8.00) supplemented with 100 mM NaCl and 653 nM DFHBI for a final concentration of 5.55 μM protein and 555 nM DFHBI. In measuring fluorescence intensity at λex = 468 nm and λem = 530 nm of each clone in technical triplicate (Supplementary Fig. 1k), 24.0 μL of 35.4 µM large-scale purified protein[49] was combined with 1.00 μL of 1.25 µM DFHBI or 1.00 μL of 1.25 µM DFHBI-1T (Lucerna) (from […] chromophore stock solutions dissolved in 0.5% DMSO and 99.5% high-salt Tev cleavage buffer [25.0 mM Tris, 100 mM NaCl, pH 8.00]) for final concentrations of 34.0 μM protein and 50.0 nM chromophore. The mFAP9–DFHBI complex had ~1.1-fold the fluorescence intensity of the mFAP10–DFHBI complex, and the mFAP9–DFHBI-1T complex had ~0.75-fold the fluorescence intensity of the mFAP10–DFHBI-1T complex (Supplementary Fig. 1k). In collecting fluorescence emission spectra by exciting fluorescence at λex = 484 nm and collecting fluorescence emission at λem = 495–650 nm (Supplementary Fig. 6b), and in measuring fluorescence endpoints in techincal triplicate at unique peak excitation and emission wavelengths (Supplementary Fig. 6c), 195 μL of large-scale purified protein[49] was combined with 5.00 μL of 25 mM Tris (pH 8.00) supplemented with 100 mM NaCl and 40.0 μM DFHBI for a final concentration of 10.0 μM protein and 1.00 μM DFHBI.
In measuring fluorescence intensity of small-scale purified proteins[49] (Supplementary Table 1), wells were excited at λex = 488 nm for DFHBI and DFHBI-1T and λex = 505 nm for DFHO, and fluorescence emission measured at λem = 510 nm for DFHBI and DFHBI-1T and λem = 545 nm for DFHO. […]

[2] = In vitro chromophore titration with DFHBI (fluorescence, single-binding site isotherm fit)
Description: Fluorescence endpoints were measured on a Synergy Neo2 hybrid multi-mode reader (BioTek) in flat bottom, black polystyrene, non-binding surface 96-well microplates (Corning 3650). In measuring chromophore-binding affinities (Fig. 1d, e), mFAP2, mFAP2a, and mFAP2b, and mFAP10 were produced by large-scale protein purification and SEC purification. Proteins were aliquoted in eight technical replicates in 200 μL final volumes to 20.0 nM final concentration in ten serial dilutions ( 10 dilution factor) of DFHBI starting from 31.6 μM DFHBI or 31.6 μM DFHBI-1T final concentrations, including an eleventh condition without chromophore. Fluorescence was excited at λex = 468 nm and fluorescence emission measured at λem = 530 nm. Background fluorescence endpoints of wells with identical chromophore concentrations but purified protein replaced with an identical volume of high-salt Tev cleavage buffer were measured, and fluorescence endpoints subtracted from those measured with protein. Background-subtracted data were averaged and the means normalized from 0 to 1 and fit to a single-binding site isotherm function using non-linear least squares fitting to obtain a fitted Kd value (Table 1), and the fit scaled to the maximum mean value (Fig. 1d, e).

higher affinity for DFHBI than DFHBI-1T [2]: ~ 6.1 fold
weaker affinity for DFHBI than the initial mFAP2 design [2]: ~ 10 fold
B1: mFAP2b: mFAP2.5 with V67I, "b" for bright (protein)
chain: SRAAQLLPGTWQVTMTNEDGQTSQGQWHFQPRSPYTMDIVAQGTISDGRPIVGYGKATVKTPDTLDIDITYPSLGNIKAQGQITMDSPTQFKWDATTKGENDFHGRLTGTLQRQE
brighter than mFAP2.4 [1]: ~ 1.3 fold
brighter than mFAP2.5 [1]: ~ 1.2 fold
